± gives the standard deviation of the averaged measurements.
How the values were obtained:
[1] = test system: hTERT-HMEC; test: percentage of EdU-negative (G0-arrested) nuclei per well, 72 h; higher = more G0 arrest; conditions: reference: sequence is the full UniProt precursor, the tested protein was the secreted form or ectodomain
[2] = test system: MCF7; test: as above; conditions: reference: sequence is the full UniProt precursor, the tested protein was the secreted form or ectodomain
[3] = protein concentration 0.0225 µM
[4] = protein concentration 0.03125 µM
[5] = protein concentration 0.3125 µM
[6] = protein concentration 0.0257143 µM
[7] = protein concentration 0.257143 µM
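Further: secreted proteins added to cultured cells, EdU pulse at the end, nuclei found by Hoechst imaging, EdU status from nuclear versus surrounding ring intensity ratio, PBS as neutral control.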

MAMRLILFFGALFGHIYCLETFVGDQVLEIVPSNEEQIKNLLQLEAQEHLQLDFWKSPTTPGETAHVRVPFVNVQAVKVFLESQGIAYSIMIEDVQVLLDKENEEMLFNRRRERSGNFNFGAYHTLEEISQEMDNLVAEHPGLVSKVNIGSSFENRPMNVLKFSTGGDKPAIWLDAGIHAREWVTQATALWTANKIVSDYGKDPSITSILDALDIFLLPVTNPDGYVFSQTKNRMWRKTRSKVSGSLCVGVDPNRNWDAGFGGPGASSNPCSDSYHGPSANSEVEVKSIVDFIKSHGKVKAFITLHSYSQLLMFPYGYKCTKLDDFDELSEVAQKAAQSLRSLHGTKYKVGPICSVIYQASGGSIDWSYDYGIKYSFAFELRDTGRYGFLLPARQILPTAEETWLGLKAIMEHVRDHPY
percentage of EdU-negative [1, 3]: 6 ± 1% | percentage of EdU-negative ([1]; protein concentration 0.225 µM): 5.16 ± 0.28% | percentage of EdU-negative [2, 3]: 25.6 ± 2.3% | percentage of EdU-negative ([2]; protein concentration 0.225 µM): 24.9 ± 0.71%

MANRGPAYGLSREVQQKIEKQYDADLEQILIQWITTQCRKDVGRPQPGRENFQNWLKDGTVLCELINALYPEGQAPVKKIQASTMAFKQMEQISQFLQAAERYGINTTDIFQTVDLWEGKNMACVQRTLMNLGGLAVARDDGLFSGDPNWFPKKSKENPRNFSDNQLQEGKNVIGLQMGTNRGASQAGMTGYGMPRQIL
percentage of EdU-negative [1, 4]: 6.1 ± 1.2% | percentage of EdU-negative [1, 5]: 5.189 ± 0.039% | percentage of EdU-negative [2, 4]: 25.9 ± 1.3% | percentage of EdU-negative [2, 5]: 25.2 ± 2.8%

MAPAGCCCCCCFWGGAVAAAGAARRVLLLLLLGVLSAGLRPGALATEHYSPLSLLKQELQHRQQQEAPAGGGGCSPQSGDWGDQYSAECGESSFLNFHDSDCEPKGSSPCDSLLSLNTEKILSQAKSIAEQKRFPFATDNDSTNEELAIAYVLIGSGLYDEAIRHFSTMLQEEPDLVSAIYGRGIAYGKKGLHDIKNAELALFELSRVITLEPDRPEVFEQRAEILSPLGRINEAVNDLTKAIQLQPSARLYRHRGTLYFISEDYATAHEDFQQSLELNKNQPIAMLYKGLTFFHRGLLKEAIESFKEALKQKVDFIDAYKSLGQAYRELGNFEAATESFQKALLLNQNHVQTLQLRGMMLYHHGSLQEALKNFKRCLQLEPYNEVCQYMKGLSHVAMGQFYEGIKAQTKVMLNDPLPGQKASPEYLKVKYLREYSRYLHAHLDTPLTEYNIDVDLPGSFKDHWAKNLPFLIEDYEEQPGLQPHIKDVLHQNFESYKPEVQELICVADRLGSLMQYETPGFLPNKRIHRAMGLAALEVMQAVQRTWTNSKVRMNGKTRLMQWRDMFDIAVKWRRIADPDQPVLWLDQMPARSLSRGFNNHINLIRGQVINMRYLEYFEKILHFIKDRILVYHGANNPKGLLEVREALEKVHKVEDLLPIMKQFNTKTKDGFTVNTKVPSLKDQGKEYDGFTITITGDKVGNILFSVETQTTEERTQLYHAEIDALYKDLTAKGKVLILSSEFGEADAVCNLILSLVYYFYNLMPLSRGSSVIAYSVIVGALMASGKEVAGKIPKGKLVDFEAMTAPGSEAFSKVAKSWMNLKSISPSYKTLPSVSETFPTLRSMIEVLNTDSSPRCLKKL [Q8NBP0]
percentage of EdU-negative ([1]; protein concentration 0.012 µM): 5.436 ± 0.048% | percentage of EdU-negative ([1]; protein concentration 0.12 µM): 11 ± 2.8% | percentage of EdU-negative ([2]; protein concentration 0.012 µM): 25.9 ± 1.1% | percentage of EdU-negative ([2]; protein concentration 0.12 µM): 27.7 ± 0.85%

MAPAGVSLRATILCLLAWAGLAAGDRVYIHPFHLVIHNESTCEQLAKANAGKPKDPTFIPAPIQAKTSPVDEKALQDQLVLVAAKLDTEDKLRAAMVGMLANFLGFRIYGMHSELWGVVHGATVLSPTAVFGTLASLYLGALDHTADRLQAILGVPWKDKNCTSRLDAHKVLSALQAVQGLLVAQGRADSQAQLLLSTVVGVFTAPGLHLKQPFVQGLALYTPVVLPRSLDFTELDVAAEKIDRFMQAVTGWKTGCSLMGASVDSTLAFNTYVHFQGKMKGFSLLAEPQEFWVDNSTSVSVPMLSGMGTFQHWSDIQDNFSVTQVPFTESACLLLIQPHYASDLDKVEGLTFQQNSLNWMKKLSPRTIHLTMPQLVLQGSYDLQDLLAQAELPAILHTELNLQKLSNDRIRVGEVLNSIFFELEADEREPTESTQQLNKPEVLEVTLNRPFLFAVYDQSATALHFLGRVANPLSTA
percentage of EdU-negative [1, 4]: 5.56 ± 0.51% | percentage of EdU-negative [1, 5]: 5.41 ± 0.61% | percentage of EdU-negative [2, 4]: 23.9 ± 1.3% | percentage of EdU-negative [2, 5]: 26.5 ± 1.4%

MAPAMESPTLLCVALLFFAPDGVLAVPQKPKVSLNPPWNRIFKGENVTLTCNGNNFFEVSSTKWFHNGSLSEETNSSLNIVNAKFEDSGEYKCQHQQVNESEPVYLEVFSDWLLLQASAEVVMEGQPLFLRCHGWRNWDVYKVIYYKDGEALKYWYENHNISITNATVEDSGTYYCTGKVWQLDYESEPLNITVIKAPREKYWLQFFIPLLVVILFAVDTGLFISTQQQVTFLLKIKRTRKGFRLLNPHPKPNPKNN
percentage of EdU-negative [1, 6]: 4.74 ± 1.5% | percentage of EdU-negative [1, 7]: 5.8 ± 0.29% | percentage of EdU-negative [2, 6]: 24.7 ± 1.3% | percentage of EdU-negative [2, 7]: 25.9 ± 1.7%

MAPAQRPLLPLLLLLLPLPPPPFARAEDAARANSDRYAVYWNRSNPRFHAGAGDDGGGYTVEVSINDYLDIYCPHYGAPLPPAERMEHYVLYMVNGEGHASCDHRQRGFKRWECNRPAAPGGPLKFSEKFQLFTPFSLGFEFRPGHEYYYISATPPNAVDRPCLRLKVYVRPTNETLYEAPEPIFTSNNSCSSPGGCRLFLSTIPVLWTLLGS
percentage of EdU-negative [1, 3]: 5.69 ± 1.4% | percentage of EdU-negative ([1]; protein concentration 0.225 µM): 9.78 ± 0.54% | percentage of EdU-negative [2, 3]: 25.4 ± 3% | percentage of EdU-negative ([2]; protein concentration 0.225 µM): 27.3 ± 0.45%

MAPARAGCCPLLLLLLGLWVAEVLVRAKPKDMTSSQWFKTQHVQPSPQACNSAMSIINKYTERCKDLNTFLHEPFSSVAITCQTPNIACKNSCKNCHQSHGPMSLTMGELTSGKYPNCRYKEKHLNTPYIVACDPPQQGDPGYPLVPVHLDKVV [Q8TDE3]
percentage of EdU-negative [1, 3]: 5.33 ± 0.52% | percentage of EdU-negative ([1]; protein concentration 0.225 µM): 5.09 ± 1.2% | percentage of EdU-negative [2, 3]: 28.2 ± 0.91% | percentage of EdU-negative ([2]; protein concentration 0.225 µM): 27.5 ± 4.3%
